According to article PMC9576733, “Cryo-EM structures of the translocational binary toxin complex CDTa-bound CDTb-pore from Clostridioides difficile” (Nature Communications, 2022):
Changes are numbered by the printed parent chain. Names may count otherwise. “And” between values parts separate entries of the source, which are not always exact repeats. Equal entries are not always repeated.

Columns and labels:
[1] = target: CDTb-pore, wild type (chymotrypsin-activated CDTb oligomer) (Clostridioides difficile) (UniProt O32739); test: SPR; CDTb-pore (WT, PSS, SPS) amine-coupled on SPRi-Biochip CS-HD, CDTa injected; room temperature, 50 uL/min; pH 5.5, 10 mM MES, 0.15 M NaCl, 1 mM EGTA, 0.005% Surfactant P20, 5 mM CaCl2; 1:1 model; average of two measurements
[2] = target: CDTb-pore, wild type (chymotrypsin-activated CDTb oligomer) (Clostridioides difficile) (UniProt O32739); test: cryo-EM structure; CDTa without His-tag added to purified WT CDTb-pore at 3-fold molar excess, unbound CDTa not removed; 10 mM HEPES pH 7.5, 1 mM CaCl2, 0.003% LMNG; classes: di-heptamer, long pore, short pore
[3] = target: CDTb-pore SPS-loop mutant (NSS > SPS) (Clostridioides difficile) (UniProt O32739); test: SPR; CDTb-pore (WT, PSS, SPS) amine-coupled on SPRi-Biochip CS-HD, CDTa injected; room temperature, 50 uL/min; pH 7.4, 10 mM HEPES, 0.15 M NaCl, 1 mM EGTA, 0.005% Surfactant P20 (no calcium); 1:1 model; average of two measurements
[4] = target: CDTb-pore, wild type (chymotrypsin-activated CDTb oligomer) (Clostridioides difficile) (UniProt O32739); test: as above
[5] = target: CDTb-pore PSS-loop mutant (NSS > PSS) (Clostridioides difficile) (UniProt O32739); test: as above
[6] = target: CDTb-pore SPS-loop mutant (NSS > SPS) (Clostridioides difficile) (UniProt O32739); test: SPR; CDTb-pore (WT, PSS, SPS) amine-coupled on SPRi-Biochip CS-HD, CDTa injected; room temperature, 50 uL/min; pH 7.4, 10 mM HEPES, 0.15 M NaCl, 1 mM EGTA, 0.005% Surfactant P20, 5 mM CaCl2; 1:1 model; average of two measurements
[7] = target: CDTb-pore, wild type (chymotrypsin-activated CDTb oligomer) (Clostridioides difficile) (UniProt O32739); test: as above
[8] = target: CDTb-pore PSS-loop mutant (NSS > PSS) (Clostridioides difficile) (UniProt O32739); test: as above
[9] = target: CDTb-pore SPS-loop mutant (NSS > SPS) (Clostridioides difficile) (UniProt O32739); test: SPR; CDTb-pore (WT, PSS, SPS) amine-coupled on SPRi-Biochip CS-HD, CDTa injected; room temperature, 50 uL/min; pH 5.5, 10 mM MES, 0.15 M NaCl, 1 mM EGTA, 0.005% Surfactant P20, 5 mM CaCl2; 1:1 model; average of two measurements
[10] = target: CDTb-pore PSS-loop mutant (NSS > PSS) (Clostridioides difficile) (UniProt O32739); test: as above
[11] = target: CDTb-pore SPS-loop mutant (NSS > SPS) (Clostridioides difficile) (UniProt O32739); test: SPR; CDTb-pore (WT, PSS, SPS) amine-coupled on SPRi-Biochip CS-HD, CDTa injected; room temperature, 50 uL/min; pH 5.5, 10 mM MES, 0.15 M NaCl, 1 mM EGTA, 0.005% Surfactant P20 (no calcium); 1:1 model; average of two measurements
[12] = target: CDTb-pore, wild type (chymotrypsin-activated CDTb oligomer) (Clostridioides difficile) (UniProt O32739); test: as above
[13] = target: CDTb-pore PSS-loop mutant (NSS > PSS) (Clostridioides difficile) (UniProt O32739); test: as above
[14] = target: the molecule itself; test: density gradient ultracentrifugation; CDTb after alpha-chymotrypsin, 0.03% LMNG 1 h 37 °C (LMNG after or before chymotrypsin); 10-30% glycerol, 50 mM HEPES pH 7.5, 100 mM NaCl, 1 mM CaCl2, 0.003% LMNG, 230,139 x g 16 h; A280 of fractions; protomers to heptamer and heptamer to di-heptamer

For “CDTa (enzymatic A-component of the Clostridioides difficile binary toxin CDT) (CDTa injected)”, the kon [1] was 152000 M⁻¹ s⁻¹.

“CDTa (enzymatic A-component of the Clostridioides difficile binary toxin CDT) (enzyme)” was tested, and the stoichiometry N [2] was 1, the Kd [3] was 26.2 nM and the koff [3] was 0.00304 s⁻¹. For the same molecule, the kon [3] was 116000 M⁻¹ s⁻¹, the Kd [4] was 28.6 nM and the koff [4] was 0.00413 s⁻¹. The kon [4] was 144000 M⁻¹ s⁻¹, the Kd [5] was 55.1 nM and the koff [5] was 0.00567 s⁻¹. The kon [5] was 103000 M⁻¹ s⁻¹, the Kd [6] was 1.89 nM and the koff [6] was 0.000521 s⁻¹. It also gave a kon [6] of 276000 M⁻¹ s⁻¹, a Kd [7] of 3.27 nM and a koff [7] of 0.000619 s⁻¹. It also gave a kon [7] of 189000 M⁻¹ s⁻¹, a Kd [8] of 4.93 nM and a koff [8] of 0.00108 s⁻¹. It also gave a kon [8] of 220000 M⁻¹ s⁻¹, a Kd [9] of 2.69 nM and a koff [9] of 0.000326 s⁻¹. For the same molecule, the kon [9] was 121000 M⁻¹ s⁻¹, the Kd [1] was 2.86 nM and the koff [1] was 0.000436 s⁻¹. It also gave a Kd [10] of 2.29 nM, a koff [10] of 0.000376 s⁻¹ and a kon [10] of 164000 M⁻¹ s⁻¹. For the same molecule, the Kd [11] was 1.61 nM, the koff [11] was 0.000709 s⁻¹ and the kon [11] was 441000 M⁻¹ s⁻¹. The Kd [12] was 1.53 nM, the koff [12] was 0.000763 s⁻¹ and the kon [12] was 498000 M⁻¹ s⁻¹. It also gave a Kd [13] of 2.27 nM, a koff [13] of 0.00132 s⁻¹ and a kon [13] of 584000 M⁻¹ s⁻¹.

B1: CDTb-pore, wild type (chymotrypsin-activated CDTb oligomer) (complex)
chain: WEDEDLDTDNDNIPDSYERNGYTIKDLIAVKWEDSFAEQGYKKYVSNYLESNTAGDPYTDYEKASGSFDKAIKTEARDPLVAAYPIVGVGMEKLIISTNEHASTDQGKTVSRATTNSKTESNTAGVSVNVGYQNGFTANVTTNYSHTTDNSTAVQDSNGESWNTGLSINKGESAYINANVRYYNTGTAPMYKVTPTTNLVLDGDTLSTIKAQENQIGNNLSPGDTYPKKGLSPLALNTMDQFSSRLIPINYDQLKKLDAGKQIKLETTQVSGNFGTKNSSGQIVTEGNSWSDYISQIDSISASIILDTENESYERRVTAKNLQDPEDKTPELTIGEAIEKAFGATKKDGLLYFNDIPIDESCVELIFDDNTANKIKDSLKTLSDKKIYNVKLERGMNILIKTPTYFTNFDDYNNYPSTWSNVNTTNQDGLQGSANKLNGETKIKIPMSELKPYKRYVFSGYSKDPLTSNSIIVKIKAKEEKTDYLVPEQGYTKFSYEFETTEKDSSNIEITLIGSGTTYLDNLSITELNSTPEILDEPEVKIPTDQEIMDAHKIYFADLNFNPSTGNTYINGMYFAPTQTNKEALDYIQKYRVEATLQYSGFKDIGTKDKEMRNYLGDPNQPKTNYVNLRSYFTGGENIMTYKKLRIYAITPDDRELLVLSVD
notes: CDTb, Clostridioides difficile, UniProt O32739; cloned as amino acids 40-876 (without signal peptide); domains after cleavage are printed as 1' (W214-A296, domain 1 without the pro-peptide) to 4 (T617-D876); Heptameric pore; also found as a di-heptamer (14 chains); also called WT CDTb; NSS-loop
B1 was tested, and the “stoichiometry N” value [14] was 14 and 7.

B2: CDTb F774L mutant (chymotrypsin-activated oligomer) (complex)
chain: B1 chain with F561L
notes: CDTb, Clostridioides difficile, UniProt O32739; cloned as amino acids 40-876; domains after cleavage printed as W214-D876; Prepared by the same protocol as wild type, without LMNG pretreatment; source: E. coli BL21 Star (DE3), purified as wild type (Glutathione Sepharose 4B), alpha-chymotrypsin, LMNG
In the case of B2, the “stoichiometry N” value [14] is reported as 14 and 7.

B3: CDTb F774G mutant (chymotrypsin-activated oligomer) (complex)
chain: B1 chain with F561G
notes: as for B2
In the case of B3, the “stoichiometry N” value [14] is reported as 14 and 7.
